Measured values taken from the supplement of paper PMC9876800.

System: peptide library, one residue held at a place counted from the S/T acceptor
Assay: relative phosphorylation of the sub-library (ratio to the mean residue at this position); higher = residue favoured
Procedure, shortened: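 Spots on streptavidin membranes were phosphorimaged and quantified by densitometry to measure phosphorylation of biotinylated degenerate peptide sub-libraries by purified recombinant kinases, human or orthologue constructs. The reactions ran in 384-well plates for 90 min under kinase-specific conditions, with peptides at 50 μM and 50 μM ATP spiked with γ-32P-ATP. Relative sub-library phosphorylation is the ratio to the mean residue at that position.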

Sequence of CDK4, construct: Full length, human (P11802 whole entry, looked up): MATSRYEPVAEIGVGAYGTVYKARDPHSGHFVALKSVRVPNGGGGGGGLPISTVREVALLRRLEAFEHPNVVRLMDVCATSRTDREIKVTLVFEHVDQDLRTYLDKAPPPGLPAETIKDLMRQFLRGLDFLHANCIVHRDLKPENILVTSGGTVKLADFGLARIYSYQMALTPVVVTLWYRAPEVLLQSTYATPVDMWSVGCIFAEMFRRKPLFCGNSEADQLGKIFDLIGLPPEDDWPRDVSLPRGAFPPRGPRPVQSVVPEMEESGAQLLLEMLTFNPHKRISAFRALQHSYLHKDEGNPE
Sequence of HASPIN, construct: aa452-798, human (Q8TF76 452-798, looked up): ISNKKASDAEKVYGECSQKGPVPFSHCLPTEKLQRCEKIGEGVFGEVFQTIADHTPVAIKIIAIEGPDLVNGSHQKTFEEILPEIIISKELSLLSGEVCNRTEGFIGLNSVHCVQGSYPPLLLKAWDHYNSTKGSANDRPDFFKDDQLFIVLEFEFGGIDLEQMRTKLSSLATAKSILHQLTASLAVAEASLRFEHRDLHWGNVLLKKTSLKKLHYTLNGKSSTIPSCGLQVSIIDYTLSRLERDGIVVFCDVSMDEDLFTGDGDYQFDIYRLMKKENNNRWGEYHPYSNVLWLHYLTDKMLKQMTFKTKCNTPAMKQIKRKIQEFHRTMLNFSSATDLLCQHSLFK
Sequence of HUNK, construct: Full length, human (P57058 whole entry, looked up): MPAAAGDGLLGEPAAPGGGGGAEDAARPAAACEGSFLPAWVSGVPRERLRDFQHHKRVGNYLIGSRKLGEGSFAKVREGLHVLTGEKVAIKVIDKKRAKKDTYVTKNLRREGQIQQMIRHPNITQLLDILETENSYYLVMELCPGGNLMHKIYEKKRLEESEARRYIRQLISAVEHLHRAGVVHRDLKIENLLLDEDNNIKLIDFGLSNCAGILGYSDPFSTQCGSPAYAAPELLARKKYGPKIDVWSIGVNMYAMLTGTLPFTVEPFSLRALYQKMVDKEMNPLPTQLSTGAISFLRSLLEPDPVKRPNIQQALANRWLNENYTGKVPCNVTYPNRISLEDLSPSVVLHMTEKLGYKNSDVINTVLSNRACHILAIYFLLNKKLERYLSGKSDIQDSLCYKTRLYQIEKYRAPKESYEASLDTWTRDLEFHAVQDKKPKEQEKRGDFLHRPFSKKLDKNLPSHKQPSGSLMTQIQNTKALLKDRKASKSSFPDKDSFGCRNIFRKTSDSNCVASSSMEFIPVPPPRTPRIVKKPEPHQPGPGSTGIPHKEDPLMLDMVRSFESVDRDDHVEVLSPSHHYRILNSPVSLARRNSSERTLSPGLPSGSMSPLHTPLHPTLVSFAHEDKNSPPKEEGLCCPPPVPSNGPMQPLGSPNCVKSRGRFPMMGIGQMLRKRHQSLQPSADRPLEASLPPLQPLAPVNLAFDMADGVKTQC
Sequence of PDK1, construct: Full length, human (Q15118 whole entry, looked up): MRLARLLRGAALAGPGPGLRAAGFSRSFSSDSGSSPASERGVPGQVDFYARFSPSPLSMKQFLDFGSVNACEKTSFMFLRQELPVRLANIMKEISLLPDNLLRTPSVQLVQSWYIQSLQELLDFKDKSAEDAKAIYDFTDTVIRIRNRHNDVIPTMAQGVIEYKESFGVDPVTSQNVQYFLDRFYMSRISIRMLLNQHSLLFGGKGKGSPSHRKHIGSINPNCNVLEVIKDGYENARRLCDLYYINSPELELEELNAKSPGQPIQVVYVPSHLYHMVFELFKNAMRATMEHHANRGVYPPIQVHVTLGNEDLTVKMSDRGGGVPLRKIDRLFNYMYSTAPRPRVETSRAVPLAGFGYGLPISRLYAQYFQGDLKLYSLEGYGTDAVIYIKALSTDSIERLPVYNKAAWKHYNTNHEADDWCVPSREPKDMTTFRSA

HASPIN, construct: aa452-798, human (from UniProt Q8TF76)
relative phosphorylation
Settings | at +1 | at +2 | at +3 | at +4 | at -1 | at -2 | at -3 | at -4 | at -5
A fixed | 0.379 | 1.04 | 0.824 | 0.822 | 0.515 | 2.18 | 0.883 | 0.899 | 0.836
D fixed | 0.166 | 0.469 | 0.344 | 0.766 | 0.155 | 0.679 | 0.544 | 0.634 | 0.517
E fixed | 0.161 | 0.359 | 0.28 | 0.404 | 0.158 | 0.483 | 0.577 | 0.767 | 0.526
F fixed | 0.587 | 0.877 | 0.984 | 0.829 | 0.354 | 0.76 | 0.749 | 0.936 | 0.812
G fixed | 0.467 | 0.751 | 1.02 | 1.03 | 0.615 | 1.17 | 1.1 | 0.985 | 0.887
H fixed | 0.682 | 1.36 | 1.09 | 1.14 | 0.606 | 0.783 | 1.11 | 0.964 | 1.01
I fixed | 0.779 | 0.69 | 0.652 | 0.819 | 0.286 | 0.734 | 0.693 | 0.844 | 2.68
K fixed | 5.48 | 1.95 | 1.81 | 2.09 | 1.5 | 1.39 | 1.92 | 1.39 | 1.23
L fixed | 0.621 | 0.783 | 0.797 | 0.749 | 0.294 | 0.464 | 0.694 | 1.54 | 0.645
M fixed | 0.766 | 1.56 | 0.782 | 1.01 | 0.42 | 0.47 | 0.644 | 0.933 | 0.777
N fixed | 0.295 | 0.762 | 0.801 | 0.86 | 0.427 | 0.737 | 0.941 | 0.738 | 0.763
P fixed | 0.807 | 0.559 | 0.714 | 0.801 | 0.493 | 1.83 | 1.12 | 0.987 | 1.32
Q fixed | 0.469 | 1.19 | 0.819 | 1 | 0.591 | 0.672 | 0.834 | 0.974 | 0.722
R fixed | 2.67 | 1.78 | 3.05 | 1.65 | 9.3 | 1.83 | 2.79 | 1.57 | 1.33
V fixed | 0.622 | 0.657 | 0.731 | 0.714 | 0.285 | 1.27 | 0.768 | 0.951 | 0.982
W fixed | 0.51 | 1.25 | 1.09 | 1.33 | 0.313 | 0.749 | 0.82 | 0.918 | 0.922
Y fixed | 1.54 | 0.971 | 1.21 | 0.979 | 0.683 | 0.809 | 0.807 | 0.969 | 1.05
pThr fixed | 0.315 | 0.44 | 0.466 | 0.648 | 0.379 | 1.23 | 1.14 | 0.928 | 0.991
pTyr fixed | 0.322 | 0.359 | 0.492 | 0.589 | 0.582 | 0.966 | 1.09 | 0.743 | 1.01

HUNK, construct: Full length, human (from UniProt P57058)
relative phosphorylation
Settings | at +1 | at +2 | at +3 | at +4 | at -1 | at -2 | at -3 | at -4 | at -5
A fixed | 1.03 | 1.5 | 0.679 | 0.686 | 1.56 | 1.41 | 1.16 | 1.13 | 1.27
D fixed | 0.435 | 0.428 | 2.19 | 1.05 | 0.948 | 0.95 | 0.524 | 0.889 | 0.9
E fixed | 0.527 | 0.447 | 1.01 | 0.957 | 1.04 | 0.921 | 0.728 | 1.19 | 0.832
F fixed | 1.58 | 0.842 | 1.37 | 1.85 | 0.461 | 0.831 | 0.927 | 0.798 | 0.759
G fixed | 0.784 | 0.624 | 0.66 | 0.751 | 1.03 | 0.896 | 1.07 | 1.15 | 1.37
H fixed | 0.814 | 1.65 | 1.04 | 0.811 | 0.795 | 1.05 | 1.97 | 0.947 | 1.09
I fixed | 0.538 | 1.44 | 0.61 | 1.72 | 0.555 | 1 | 0.798 | 0.942 | 0.953
K fixed | 0.713 | 0.591 | 0.493 | 0.609 | 1.38 | 0.725 | 0.726 | 1.02 | 1.23
L fixed | 0.882 | 0.747 | 0.704 | 1.39 | 0.571 | 0.867 | 1.19 | 1.39 | 0.947
M fixed | 1.81 | 0.549 | 0.945 | 1.71 | 1.01 | 0.946 | 1.3 | 1.04 | 0.811
N fixed | 0.794 | 0.829 | 1.85 | 0.873 | 1.11 | 1.28 | 0.675 | 0.993 | 1.03
P fixed | 0.301 | 0.355 | 0.287 | 0.64 | 1.06 | 0.395 | 0.961 | 0.786 | 0.917
Q fixed | 1.73 | 0.582 | 0.661 | 0.712 | 1.17 | 1.3 | 0.749 | 0.797 | 0.725
R fixed | 1.01 | 0.814 | 0.766 | 0.758 | 2.41 | 1.44 | 1.35 | 0.963 | 1.3
V fixed | 0.701 | 2.16 | 0.599 | 0.735 | 0.576 | 1.25 | 0.559 | 0.833 | 0.842
W fixed | 1.49 | 1.7 | 2.1 | 0.853 | 0.626 | 0.916 | 0.991 | 1.15 | 0.943
Y fixed | 1.87 | 1.74 | 1.03 | 0.903 | 0.694 | 0.806 | 1.32 | 0.987 | 1.08
pThr fixed | 1.16 | 1.58 | 0.532 | 0.85 | 0.689 | 1.65 | 0.827 | 0.821 | 0.727
pTyr fixed | 0.97 | 1.71 | 0.92 | 0.972 | 0.873 | 0.669 | 0.897 | 0.783 | 0.806

CDK4, construct: Full length, human (from UniProt P11802)
relative phosphorylation
Settings | at +1 | at +2 | at +3 | at +4 | at -1 | at -2 | at -3 | at -4 | at -5
A fixed | 0.244 | 0.682 | 0.688 | 0.766 | 0.896 | 0.85 | 1.04 | 1 | 1.02
D fixed | 0.173 | 0.416 | 0.335 | 0.58 | 0.421 | 0.228 | 0.387 | 0.667 | 0.799
E fixed | 0.133 | 0.337 | 0.246 | 0.526 | 0.504 | 0.298 | 0.59 | 0.844 | 0.796
F fixed | 0.237 | 0.736 | 0.778 | 0.851 | 0.96 | 1.06 | 0.741 | 0.852 | 0.797
G fixed | 0.746 | 0.88 | 0.82 | 1.11 | 1.03 | 0.596 | 1.4 | 1.18 | 1.28
H fixed | 0.266 | 1.32 | 1.05 | 1.38 | 1.02 | 1.04 | 1.13 | 1.09 | 1.16
I fixed | 0.278 | 1.16 | 0.428 | 0.855 | 0.531 | 1.01 | 0.915 | 0.838 | 0.917
K fixed | 0.29 | 1.55 | 1.86 | 1.2 | 1.29 | 0.798 | 1.21 | 1.23 | 1.4
L fixed | 0.364 | 0.967 | 0.412 | 0.587 | 1.28 | 1.41 | 0.874 | 0.808 | 0.752
M fixed | 0.267 | 1.03 | 0.566 | 0.909 | 1.46 | 1.28 | 0.796 | 0.827 | 0.813
N fixed | 0.258 | 1.27 | 0.739 | 0.976 | 0.731 | 0.948 | 0.856 | 1.16 | 1.08
P fixed | 12.4 | 0.481 | 0.92 | 0.848 | 0.94 | 2.52 | 1.14 | 1.08 | 1.14
Q fixed | 0.275 | 0.789 | 0.652 | 0.801 | 1.27 | 0.76 | 0.704 | 0.832 | 0.822
R fixed | 0.324 | 2.59 | 4.48 | 2.2 | 1.9 | 1.39 | 2.5 | 1.52 | 1.6
V fixed | 0.302 | 1.01 | 0.417 | 0.636 | 0.624 | 0.891 | 0.889 | 0.658 | 0.68
W fixed | 0.239 | 0.624 | 1.54 | 1.42 | 0.996 | 0.88 | 0.87 | 1.28 | 0.782
Y fixed | 0.222 | 1.16 | 1.07 | 1.36 | 1.13 | 1.05 | 0.957 | 1.13 | 1.15
pThr fixed | 0.323 | 0.406 | 0.361 | 0.422 | 0.237 | 0.382 | 0.592 | 0.644 | 0.77
pTyr fixed | 0.482 | 0.391 | 0.503 | 0.432 | 0.357 | 0.356 | 0.592 | 0.544 | 0.934

PDK1, construct: Full length, human (from UniProt Q15118)
relative phosphorylation
Settings | at +1 | at +2 | at +3 | at +4 | at -1 | at -2 | at -3 | at -4 | at -5
A fixed | 0.64 | 0.794 | 0.777 | 0.904 | 1.25 | 0.94 | 0.972 | 0.989 | 0.951
D fixed | 0.63 | 1.03 | 1.5 | 1.01 | 1.58 | 0.752 | 0.799 | 0.88 | 0.943
E fixed | 0.568 | 0.888 | 1.1 | 0.856 | 0.681 | 0.7 | 0.677 | 0.818 | 0.881
F fixed | 1.18 | 1.15 | 1.64 | 1.17 | 1.04 | 1.26 | 1.28 | 1.18 | 1.24
G fixed | 0.641 | 1.71 | 1.08 | 1.05 | 1.11 | 1.42 | 0.928 | 1.14 | 1.12
H fixed | 0.804 | 1.09 | 0.87 | 1.06 | 1.25 | 1.26 | 1.08 | 0.957 | 1.1
I fixed | 2.06 | 0.767 | 0.932 | 1 | 0.793 | 0.852 | 1.1 | 0.962 | 0.945
K fixed | 0.624 | 0.808 | 0.622 | 0.794 | 0.655 | 0.704 | 0.77 | 0.832 | 0.824
L fixed | 2.3 | 0.889 | 0.883 | 0.884 | 0.924 | 1.02 | 1.07 | 0.982 | 1.05
M fixed | 1.34 | 0.989 | 1.02 | 1 | 0.976 | 1.08 | 1.12 | 1.19 | 1.1
N fixed | 0.625 | 0.935 | 0.809 | 1.02 | 1.29 | 0.787 | 0.867 | 0.878 | 0.981
P fixed | 0.607 | 0.902 | 1.1 | 1.08 | 0.864 | 0.799 | 0.912 | 1.02 | 0.722
Q fixed | 0.727 | 1.04 | 0.803 | 0.884 | 0.801 | 0.869 | 0.852 | 0.883 | 0.679
R fixed | 0.728 | 1.11 | 0.897 | 0.967 | 0.751 | 0.986 | 0.851 | 0.988 | 0.95
V fixed | 1.28 | 0.813 | 0.948 | 0.926 | 0.823 | 0.83 | 0.94 | 0.831 | 0.917
W fixed | 1.25 | 1.08 | 1.03 | 1.38 | 1.21 | 1.73 | 1.78 | 1.47 | 1.6
Y fixed | 1.18 | 1.15 | 1.64 | 1.17 | 1.04 | 1.26 | 1.28 | 1.18 | 1.24
pThr fixed | 0.538 | 0.662 | 0.863 | 0.876 | 0.572 | 0.524 | 0.666 | 0.846 | 0.933
pTyr fixed | 0.723 | 0.951 | 0.689 | 0.919 | 0.694 | 0.892 | 0.885 | 1.2 | 1.05
